Measurements reported in patent CN114106161A (ANYUAN MEDICINE SCIENCE AND TECH SHANGHAI LIMITED COMPANY, dated 2022).

Assays:
[1] = biological target: 刺突S-鼠Fc融合蛋白 (S-mFc) (SARS-CoV-2; mouse, UniProt P0DTC2 14-1213); assay: flow cytometry, blocking of S-mFc binding to 293T-ACE2 cells
[2] = biological target: T1, SARS-CoV-2 S1蛋白 (ACRO Biosystems) (SARS-CoV-2, UniProt P0DTC2 16-685); assay: competition ELISA, S1 coated, competitor HRP-labelled hACE2-Fc
T1 construct: domain: S1; also called SARS-CoV-2S1抗原; 生物素化SARS-CoV-2S1

[3] = biological target: T1, SARS-CoV-2 S1蛋白 (ACRO Biosystems); assay: BLI, biotinylated SARS-CoV-2 S1 on SA sensor, antibody as analyte, 1:1 fit

B1: 人源化抗体hS1B-73-3 (antibody, V domains shown)
VH: EVQLVQSGAEVKKPGSSVKVSCKASGYAFTNFLIEWVREAPGQGLEWIGMINPGSGDTNYNEKFKGKATLTADKSTSTVYMELSSLRSEDTAVYFCARQLGLPGFVYWGRGTTVTVSS
VL: DIQMTQSPSSLSASVGDRVTITCKASQDINSYLTWLQQKPGKSPKTLIYRANRLVEGVPSRFSGSGSGQDFTLKISSLQPEDIATYYCLQHDEFPLTFGQGTKLEIKR
notes: also called 抗SARS-CoV-2S1 RBD人源化抗体hS1B-73-3
IC50 [1]: 0.00433 µg/mL | EC50 [2]: 0.0254 µg/mL | Kd [3]: 0.0207 nM | koff [3]: 2.22e-05 s⁻¹ | kon [3]: 1.07e+06 M⁻¹ s⁻¹
